The values that follow come from patent US8404644B2, “Agents with angiogenic and wound healing activity” (Meat & Livestock Australia Limited, priority 2007, dated 2013).

Data set [1] is described as follows: Stability to heat treatment. Type of data set: physicochemical. The protocol:
(§1) The second study investigated the angiogenic potential of purified crystallin proteins. Briefly, βB3 crystallin was prepared by heating (97-99° C. for 3 minutes, supernatant collected by centrifugation) and was essentially homogenous. Alpha A crystallin and αB crystallin samples were prepared by ion exchange chromatography as described above and were also essentially homogenous. The Wound Heal 1-3 preparations were also tested in this study.

Another data set relates to rat aortic ring. Briefly: Rat aortic ring angiogenesis assay (Example 4.3). The data set is classed as cell-based, Lewis rat. The following applies: second study, 200 μg/mL. The protocol:
Four separate studies were carried out to determine the angiogenic effect of crystallin preparations. Each sample was assayed in triplicate. A positive control (VEGF) and a vehicle control containing PBS was also run in triplicate. […] Preliminary statistical significance was assessed with an independent Student t-test at α<0.05. Graphical representation of averages +/− standard errors were determined.
The first study investigated the angiogenic potential of bovine fractions prepared by gel filtration analysis as described in Example 3.2. As described in that Example, the alpha fraction contained αA and αB crystallin, the β H fraction contained all β crystallins, the β L1 fractions contained a sub-fraction of beta crystallins and a high content of βB2 crystallin and beta B3 crystallin and the beta L2 fraction contained only βB2 crystallin and βA3 crystallin.
as §1
The third study investigated the angiogenic potential of ovine crystallin proteins compared to their bovine equivalents. Both bovine and ovine crystallin proteins were purified essentially to homogeneity by RP. HPLC using a C4 column, as described below in Example 5. Homogeneity was confirmed by SDS-PAGE. The effect of elastase I treatment of βB2 crystallin was also investigated by comparing the angiogenic potential of intact βB2 crystallin (i.e. undigested) with elastase I digested βB2 crystallin. Elastase I treatment releases the N-terminal and C-terminal extensions of the crystallin protein leaving a globular protein that is monomeric.
In the final study, ovine βB2 crystallin was tested alone or in combination with indoleamine 2,3-dioxygenase (IDO) and ovine alpha B crystallin was tested alone or in combination with tryptophan dioxygenase (TDO)
Briefly, in each study, a single Lewis rat was euthanised and its aorta transferred to a 15 mL Falcon tube containing 10 mL of MCBD-131 medium and stored on ice. After transferring the aorta to a 92×17 mm petri dish containing 10 mL of ice cold MCDB-131, the outer fatty tissue was removed under an Olympus SZ-60 Dissecting microscope. This was undertaken with fibre optic lamp illumination. The aorta was then cut into sequential rings approximately 2 mm in size. Connective tissue was removed with micro scissors and forceps from the outside of the individual rings. Clean rings were stored in a separate petri dish in sterile MCDB-131 medium. Rings were pre-incubated overnight at 37° C. in an atmosphere of 97% air/3% CO2.
To prepare gel sandwiches, 75 mg of fibrinogen was added to 25 mL MCDB-131 medium and shaken gently on a rocker roller for 5 minutes. 3 ml of MCDB-131/fibrinogen solution was added to a 15 mL Falcon tube, followed by 10 μL of thrombin and quickly mixed. A 0.4 mL volume of this fibrinogen-thrombin solution was added to each well on a 24 well plate, 6 wells at a time. Aortic rings were then placed on the setting gel, pushed gently into the gel and left for 45 minutes. These steps were then repeated so each ring was covered with 0.4 mL of gel. Gels were left to set at room temperature. […] The plate was then placed in incubator (37° C., 97% air/3% CO2).
Culture plate were examined daily for signs of infection (fungal growth or yellowing of media) in the wells using an inverted microscope. The growth of microvessels from their perimeters was also observed. Digital photographs of each well were taken seven days after plating using a Pixera PVC-100C digital camera mounted on an OLYMPUS CK-12 microscope and stored on a Macintosh Computer. […]

Data set [2] in a line: Body weight during wound healing assay (Example 3.6). The following applies: PBS control returned by day 11. Type of data set: in vivo, male Lewis rats. Here is the method:
(§2) Body weights were measured on days 1, 3, 5, 7, 9, 11, 13, 15, 17, 19, 21 and 23 and deviations from original body weights (on day 1) calculated for each animal. On the same days, photographs were taken using a Canon Digital Eos 20D with a F2.8 Macro lens. Photographs were downloaded and wound areas measured using NIH Image J 1.633u software (National Institutes of Health (NIH), Rockville Pike, Bethesda, Md., United States). A laser speckle image was also taken at the same time as each space photograph was taken. Animals were weighed every second day when the photographic record of wound closure rate was also made.

Data set [3] deals with full thickness 12 mm wound. Nature of the data set: Wound healing assay (Example 3.6). The data set is classed as in vivo, male Lewis rats. The settings on record: for Wound areas: mg/wound: Wound heal 1 0.01, Wound heal 2 0.1, Wound heal 3 1.0, Aloe vera 20; for wounds larger than wounds on rats receiving buffered saline only: 1.0 mg/wound. Here is the method: Thirty male Lewis rats were divided into 5 groups of 6 rats as outlined below in Table 7. Rats were age and weight matched. Rats were permitted rodent diet and water ad libitum throughout the study.
The animals were weighed two days before the start of the trial and weights grouped from lightest to heaviest. Animals were then randomly assigned to groups based on body weights, using 5×5 Latin squares so that group means were as similar as possible.
Approximately 30 minutes before wounding, each animal was given a subcutaneous injection of Temgesic at the base of the neck (0.075 mg/kg body weight). Each animal was anaesthetised using 3% halothane in oxygen. Once the pedal reflexes had been abolished, the animals were shaved from the base of the skull to the hind limb area using electric clippers. The skin on each rat was disinfected using 0.5% chlorhexidine in 70% ethanol. For each animal, the distance from the base of the skull to the top of the hip joint was measured and the wound position marked with a black felt tip pen, 6 cm below the base of the skull along the spinal axis.
Using asceptic techniques a full thickness incision was made at this position using a sterile 12 mm biopsy punch. Any bleeding was removed using cotton swabs. Care was taken that the punch was dry and that no debris (eg., skin, hair) entered the wounds. […] After photography of each wound using a Canon Digital EOS 20D camera with a F2.8 Macro lens, an aliquot of the sample was applied to the wounds on the rats in Groups A, B, D and E using a Gilson Microman CP 100 positive displacement pipette. The biopsy punch was wiped inside with a swab soaked in sterile saline to remove any tissue fluids and/or debris. The punch was then immersed in 70% ethanol before use on the next animal.
For applications and photographs after day 1 the animals were restrained without being anaesthetised.
as §2
The redness and swelling of each wound were individually scored from visual observation. These were scored on a scale of 0-3 as follows:
Descriptive statistics were evaluated. […] Major analyses were performed on all data points collected. Preliminary analyses were undertaken on control wounds only using t-tests. Univariate ANOVAs were used to assess differences between treatment and controls and samples nested within treatments. A separate ANOVA assessed whether there was a dose response using the treatment samples only. Assumptions for normality were tested using q-q plots on studentized residuals and heterogeneity of variances were tested using Levene's tests. SPSS 11 for Mac OSX was used for assumption testing and statistical analysis.

For data set [4], the target named is T1, elastase I (Sus scrofa, UniProt P00772).
T1 construct: purchased Worthington Biochemical Corporation 2280
Nature of the data set: Chaperone activity: protection of elastase I from heat denaturation. Type of data set: biochemical. The settings on record: boiling water bath for 30 seconds. Here is the method:
Bovine crystallin fractions were tested for ability to protect the proteases elastase I, trypsin and chymotrypsin from heat denaturation. Briefly, the proteases were heated in a boiling water bath for 30 seconds in the presence or absence of the crystallin fractions.

Data set [5] addresses T1, elastase I. Briefly: Elastase I inhibitory activity of crystallin fractions. Type of data set: biochemical. The protocol: The bovine crystallin fractions were tested for ability to inhibit elastase I activity.

T1 sequence (P00772 27-266): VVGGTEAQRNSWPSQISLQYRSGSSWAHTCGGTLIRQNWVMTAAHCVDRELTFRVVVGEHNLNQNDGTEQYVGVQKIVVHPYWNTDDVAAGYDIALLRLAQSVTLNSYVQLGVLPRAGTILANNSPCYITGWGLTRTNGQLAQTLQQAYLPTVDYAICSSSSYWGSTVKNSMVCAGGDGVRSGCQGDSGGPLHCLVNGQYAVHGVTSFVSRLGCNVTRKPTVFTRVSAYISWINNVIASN

B1: βB2 crystallin: bovine βB2 crystallin protein (SEQ ID No. 1); in b236 the value is that of Wound Heal 2 (protein)
chain: ASDHQTQAGKPQPLNPKIIIFEQENFQGHSHELNGPCPNLKETGVEKAGSVLVQAGPWVGYEQANCKGEQFVFEKGEYPRWDSWTSSRRTDSLSSLRPIKVDSQEHKITLYENPNFTGKKMEVIDDDVPSFHAHGYQEKVSSVRVQSGTWVGYQYPGYRGLQYLLEKGDYKDSGDFGAPQPQVQSVRRIRDMQWHQRGAFHPSS
modifications: bovine
With B1, the “stability to heat treatment (in words)” value in data set [1] is “unstable to heat treatment”. Moreover, the “increase in microvessel growth (stimulatory)” value in the data set with rat aortic ring came out at 21.83%.

B2: Wound Heal 3: bovine αB crystallin, DEAE Sepharose fast flow fractions 37-47; Group D of Example 3 (protein)
chain: MDIAIHHPWIRRPFFPFHSPSRLFDQFFGEHLLESDLFPASTSLSPFYLRPPSFLRAPSWIDTGLSEMRLEKDRFSVNLDVKHFSPEELKVKVLGDVIEVHGKHEERQDEHGFISREFHRKYRIPADVDPLAITSSLSSDGVLTVNGPRKQASGPERTIPITREEKPAVTAAPKK
Regarding B2, in data set [2], the “day by which mean body weight had returned to the starting (pre-wounding) weight” value is ≤ 12 days. Also, the Wound areas is given as 100 in data set [3] (Day 1 (=100)); 93 in data set [3] (Day 3); 82 in data set [3] (Day 5); 76 in data set [3] (Day 7); 58 in data set [3] (Day 9); 34 in data set [3] (Day 11). Also, the Wound areas in data set [3] (Day 13) came to 23; in data set [3] (Day 15), 15; in data set [3] (Day 17), 9; in data set [3] (Day 19) it was 5; in data set [3] (Day 21) it was 2.5; in data set [3] (Day 23) it was 1.4. In addition, the figures for the “wounds larger than wounds on rats receiving buffered saline only” value in data set [3] (day 3), in data set [3] (day 7) and in data set [3] (day 11) were 8.8%, 7.7% and 28.7%, respectively. The “healing rate compared to Control group (PBS), in words” value in data set [3] (rat, in vivo) is “inhibited the rate of healing”. In addition, the “chaperone activity: protection of elastase I from heat denaturation (in words)” value with elastase I [4] is “Chaperone activity was observed”. In the data set with rat aortic ring (microvessel growth), the “% of Control” value was determined as 93.09%.

B3: Gamma S crystallin: gamma S gel filtration fraction of bovine crystallin extract (protein)
chain: SKAGTKITFFEDKNFQGRHYDSDCDCADFHMYLSRCNSIRVEGGTWAVYERPNFAGYMYILPRGEYPEYQHWMGLNDRLSSCRAVHLSSGGQYKLQIFEKGDFNGQMHETTEDCPSIMEQFHMREVHSCKVLEGAWIFYELPNYRGRQYLLDKKEYRKPVDWGAASPAVQSFRRIVE
Turning to B3, the “elastase I inhibitory activity (in words)” value in the data set with elastase I [5] is “considerable elastase inhibitory activity”.
